Results from paper PMC7110113, “Termination of non‐coding transcription in yeast relies on both an RNA Pol II CTD interaction domain and a CTD‐mimicking region in Sen1” (The EMBO Journal, 2020).
Ends that are not written are not given here. FAM = 5,6-carboxyfluorescein

How the values were obtained:
Experiment in all cases: fluorescence polarisation; fluorescence anisotropy, equilibrium binding of Nrd1 CID variants to FAM-labelled NIM peptides; 10°C, 50 mM Na2HPO4, 100 mM NaCl, pH 8; 1:1 model with non-specific binding (DynaFit)
Settings in all cases: both partners purified
Nrd1 CID R133D = target: T1, Nrd1 CID R133D (S. cerevisiae, UniProt P53617 1-153, R133D)
T1 construct: the construct for anisotropy is made as described previously (Kubicek et al, 2012); also called CID(R133D)-His6; source: recombinant, produced and purified as described previously (Kubicek et al, 2012); plasmid made with QuikChange, T7 promoter
T1 sequence (looked up): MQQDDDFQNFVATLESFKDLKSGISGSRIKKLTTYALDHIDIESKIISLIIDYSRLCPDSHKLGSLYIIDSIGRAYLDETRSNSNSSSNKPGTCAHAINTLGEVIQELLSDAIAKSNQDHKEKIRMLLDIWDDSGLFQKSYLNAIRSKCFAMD

Nrd1 CID R28D = target: T2, Nrd1 CID R28D (S. cerevisiae, UniProt P53617 1-153, R28D)
T2 construct: the construct for anisotropy is made as described previously (Kubicek et al, 2012); also called CID(R28D)-His6; source: recombinant, produced and purified as described previously (Kubicek et al, 2012); plasmid with T7 promoter
T2 sequence (looked up): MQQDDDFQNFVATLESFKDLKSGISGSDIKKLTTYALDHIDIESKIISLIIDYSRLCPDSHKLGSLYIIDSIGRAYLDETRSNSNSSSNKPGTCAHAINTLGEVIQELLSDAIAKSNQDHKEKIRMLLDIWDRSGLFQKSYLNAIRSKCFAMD

Nrd1 CID I130N = target: T3, Nrd1 CID I130N (S. cerevisiae, UniProt P53617 1-153, I130N)
T3 construct: the construct for anisotropy is made as described previously (Kubicek et al, 2012); also called CID(I130N)-His6; source: recombinant, produced and purified as described previously (Kubicek et al, 2012); plasmid with T7 promoter
T3 sequence (looked up): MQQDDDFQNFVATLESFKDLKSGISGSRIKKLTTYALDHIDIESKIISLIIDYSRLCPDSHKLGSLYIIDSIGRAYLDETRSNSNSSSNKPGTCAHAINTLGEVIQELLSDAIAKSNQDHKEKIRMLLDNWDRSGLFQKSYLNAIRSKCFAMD

B1: Sen1 NIM peptide (Sen1 aa 2,052-2,063) (peptide, UniProt Q00416 2052-2063, looked up)
peptide: {FAM}-DDDEDDYTPSIS
notes: Sen1, S. cerevisiae, fragment harbouring aa 2,052-2,063; source: synthetic peptide
In the case of B1, the Kd (Nrd1 CID R133D) is reported as 2 ± 0.1 µM, the Kd (Nrd1 CID R28D) is reported as 78.2 ± 11.5 µM and the Kd (Nrd1 CID I130N) is reported as 8.9 ± 0.5 µM.
